First the molecules themselves.
B1: Mint1-CID (residues 338-397) [not stated] / CASK-CaMK (residues 1-337) [not stated] (parent)
chain 1: QRYSKEKRDAISLAIKDIKEAIEEVKTRTIRSPYTPDEPKEPIWVMRQDISPTRDCDDQR
chain 2: MADDDVLFEDVYELCEVIGKGPFSVVRRCINRETGQQFAVKIVDVAKFTSSPGLSTEDLKREASICHMLKHPHIVELLETYSSDGMLYMVFEFMDGADLCFEIVKRADAGFVYSEAVASHYMRQILEALRYCHDNNIIHRDVKPHCVLLASKENSAPVKLGGFGVAIQLGESGLVAGGRVGTPHFMAPEVVKREPYGKPVDVWGCGVILFILLSGCLPFYGTKERLFEGIIKGKYKMNPRQWSHISESAKDLVRRMLMLDPAERITVYEALNHPWLKERDRYAYKIHLPETVEQLRKFNARRKLKGAVLAAVSSHKFNSFYGDPPEELPDFSEDPTS

Variants of B1 are the subject of the test. As to the kind of experiment: ITC. As to conditions: with CASK-CaMK (residues 1-337); Mint1-CID mutant titrated into CASK(1-337).
For the variant chain 1 QRYSKEKRDAISLAAKDAKEAAEEVKTRTIRSPYTPDEPKEPIWVMRQDISPTRDCDDQR [chain 1 I15A I18A I22A], the Kd worked out at 270 nM.

The Kd is the free concentration of one partner at which half of the binding sites on the other are occupied at equilibrium, for simple one-to-one binding.

These data come from PMC7736295 (Cell Discovery, 2020).
